US12258605B2, “Alkane oxidation by modified hydroxylases” (The California Institute of Technology, priority 2005, dated 2025)
Like-named read-outs stand apart in the source and are kept apart here.

Experiments:
[1] = Absorption spectra, spin shift upon incubation with substrate; type: binding; settings: 3 uM purified P450; incubation with ethane or octane
Protocol: The absorption spectra for 53-5H and 35-E11 were taken using a 3 uM solution of purified P450 in a quartz cuvette. Upon incubation with ethane, no shift in equilibrium from low- (Amax at 418 nm) to high-spin (Amax at 390 nm) configuration of the ferric P450 was observed.

[2] = T50 determination (heat inactivation of CO-binding); type: physicochemical
Protocol: T50 determination. A solution of purified enzyme (1-3 μM) in 100 mM KPi pH 8.0 buffer was transferred on a PCR 96-well plate and incubated for 10 minutes at different temperatures (from 37° C. to 60° C.) in a PCR thermocycler. The plate was then cooled on ice, centrifuged at 1500 g for 10 min. 160 μL of the protein solution was then transferred on a 96-well microtiter plate with 40 μL of sodium hydrosulfite 0.1 M in 1 M KPi pH 8.0. A protein sample incubated at room temperature and one incubated on ice were included in the series. Concentration of folded protein was then determined by measuring CO-binding difference spectra using absorption at 450 and 490 nm and extinction coefficient ε450-490=91,000 M^−1 cm^−1. CO-binding signals were normalized to protein concentration of the sample incubated at 4° C. T50 values were calculated as midpoint inactivation temperatures from nonlinear fitting to the heat-inactivation curves. Experiments were carried out in triplicate.
As a first step, we aimed at increasing the thermostability of 35E11 heme domain in order to obtain a more ‘evolvable’ parent. […] To regain stability and allow further evolution, stabilizing mutations, derived from a thermostable peroxygenase, was tested in single and in combination (Table 16). The effect on enzyme's thermostability of each single mutation or combination thereof on thermostability was evaluated by monitoring temperature-dependent inactivation of the enzyme's CO-binding (FIG. 36C). Among 35E11 derivatives, ETS8 was selected as the best candidate for further evolution experiments, in that its higher thermostability (ΔT50=+5.1° C.) was accompanied by only a 20% decrease in propane activity on propane. […]
T50 values determined from heat-inactivation curves of heme-dependent CO-binding spectral shift show how mutations accumulated during laboratory evolution affected enzyme stability (FIG. 37E) and enable an estimation per-mutation stability penalties for each directed evolution round (FIG. 37F). […]

[3] = NADPH oxidation rates and coupling for propane hydroxylation (Example 4); type: biochemical; settings: propanol formation rate/NADPH oxidation rate
Protocol: Determination of NADPH oxidation rates. Initial rates of NADPH oxidation were measured using propane-saturated 100 mM KPi pH 8.0 buffer, purified enzyme at 50-200 nM, and a saturating concentration of NADPH (200 μM). The absorbance decrease at 340 nm was monitored at 25° C. in a BioSpec-1601 UV/VIS spectrophotometer (Shimadzu, Columbia, MD) for 1 min. Rates were calculated over the first 20 seconds using NADPH extinction coefficient ε340=6210 M^−1 cm^−1. Rates were determined in triplicate. Coupling values were calculated from the ratio of propanol formation rate to NADPH oxidation rate in the presence of propane.

[4] = palmitate; cited from earlier work
[5] = laurate; cited from earlier work

B1: 35-E11: P450 BM-3 variant, SEQ ID NO:7: 53-5H substitutions plus E464G and I710T (protein)
chain: TIKEMPQPKTFGELKNLPLLNTDKPVQALMKIADELGEIFKFEAPGCVTRYLSSQRLIKEACDESRFDKNLSQALKFFRDFSGDGLFTSWTHEINWKKAHNILLPSFSQQAMKGYHAMMVDIAVQLVQKWERLNADEHIEVSEDMTRLTLDTIGLCGFNYRFNSFYRDQPHPFIISMVRALDEVMNKLQRANPDDPAYDENKRQCQEDIKVMNDLVDKIIADRKARGEQSDDLLTQMLNGKDPETGEPLDDGNISYQIITFLIAGHETTSGLLSFALYFLVKNPHVLQKVVEEAARVLVDPVPSYKQVKQLKYVGMVLNEALRLWPTFPAFSLYAKEDTVLGGEYPLEKGDEVMVLIPQLHRDKTIWGDDVEEFRPERFENPSAIPQHAFKPFGNGQRACIGQQFALHEATLVLGMMLKHFDFEDHTNYELDIKETLTLKPEGFVVKAKSKKIPLGGIPSPSTGQSAKKVRKKAENAHNTPLLVLYGSNMGTAEGTARDLADIAMSKGFAPQVATLDSHAGNLPREGAVLIVTASYNGHPPDNAKQFVDWLDQASADEVKGVRYSVFGCGDKNWATTYQKVPAFIDETLAAKGAENIADRGEADASDDFEGTYEEWREHMWSDVAAYFNLDIENSEDNKSTLSLQFVDSAADMPLAKMHGAFSTNVVASKELQQPGSARSTRHLEIELPKEASYQEGDHLGVIPRNYEGTVNRVTARFGLDASQQIRLEAEEEKLAHLPLAKTVSVEELLQYVELQDPVTRTQLRAMAAKTVCPPHKVELEALLEKQAYKEQVLAKRLTMLELLEKYPACEMKFSEFIALLPSIRPRYYSISSSPRVDEKQASITVSVVSGEAWSGYGEYKGIASNYLAELQEGDTITCFISTPQSEFTLPKDPETPLIMVGPGTGVAPFRGFVQARKQLKEQGQSLGEAHLYFGCRSPHEDYLYQEELENAQSEGIITLHTAFSRMPNQPKTYVQHVMEQDGKKLIELLDQGAHFYICGDGSQMAPAVEATLMKSYADVHQVSEADARLWLQQLEEKGRYAKDVWAG
modifications: mutant P450 35-E11 protein sequence
shift from low- to high-spin ferric P450 [1]: behaved identically
T50 ([2]; 10 minutes incubation, midpoint inactivation temperature of CO-binding): 43.4 ± 0.6 °C
ΔT50 ([2]; relative to 35E11): 0 °C
ΔT50 ([2]; stability loss from wild-type to 35E11): −11.6 °C

B2: P450PMO: P450 BM-3 variant, SEQ ID NO:125; 7-7 plus G443A and D698G; propane monooxygenase (protein)
chain: TIKEMPQPKTFGELKNLPLLNTDKPVQALMKIADELGEIFKFEAPGCVTRYISSQRLIKEACDESRFDKNLSQELKFFRDFGGDGLFTSWTHEINWKKAHNILLPSFSQQAMKGYHAMMVDIAVQLVQKWERLNADEHIEVSEDMTRLTLDTIGLCGFNYRFNSFYRDQPHPFIISMVRALDEVMNKPQRANPDDPAYDENKRQCQEDIKVMNDLVDKIIADRKARGEQSDDLLTQMLNGKDPETGEPLDDGNISYQIITFLIAGHETTSGLLSFALYFLVKNPHVLQKVVEEAARVLVDPVPSYKQVKQLKYVGMVLNEALRLWPTFPAFSLYAKEDTVLGGEYPLEKGDEVMVLIPQLHRDKTVWGDDVEEFRPERFENPSAIPQHAFKPFGNGQRACIGQQFALHEATLVLGMMLKHFDFEDHTNYELDIKETLTLKPEAFVVKAKSKKIPLGGIPSPSTGQSAKKVRKKAENAHNTPLLVLYGSNMGTAEGTARDLADIAMSKGFAPQVATLDSHAGNLPREGAVLIVTASYNGHPPDNAKQFVDWLDQASADEVKGVRYSVFGCGDKNWATTYQKVPAFIDETLAAKGAENIADRGEADASDDFEGTYEEWREHMWSDVAAYFNLDIENSEDNKSTLSLQFVDSAADMPLAKMHGAFSTNVVASKELQQPGSARSTRHLEIELPKEASYQEGGHLGVIPRNYEGTVNRVTARFGLDASQQIRLEAEEEKLAHLPLAKTVSVEELLQYVELQDPVTRTQLRAMAAKTVCPPHKVELEALLEKQAYKEQVLAKRLTMLELLEKYPACEMKFSEFIALLPSIRPRYYSISSSPRVDEKQASITVSVVSGEAWSGYGEYKGIASNYLAELQEGDTITCFISTPQSEFTLPKDPETPLIMVGPGTGVAPFRGFVQARKQLKEQGQSLGEAHLYFGCRSPHEDYLYQEELENAQSEGIITLHTAFSRMPNQPKTYVQHVMEQDGKKLIELLDQGAHFYICGDGSQMAPAVEATLMKSYADVHQVSEADARLWLQQLEEKGRYAKDVWAG
modifications: Mutant P450PMO protein sequence
notes: 7-7 plus G443A and D698G; propane monooxygenase
coupling efficiency for propane hydroxylation [3]: 90%

B3: Wild-type BM-3: wild-type cytochrome P450 BM-3 from Bacillus megaterium, SEQ ID NO:1 (protein, listed as Bacillus megaterium)
chain: TIKEMPQPKTFGELKNLPLLNTDKPVQALMKIADELGEIFKFEAPGRVTRYLSSQRLIKEACDESRFDKNLSQALKFVRDFAGDGLFTSWTHEKNWKKAHNILLPSFSQQAMKGYHAMMVDIAVQLVQKWERLNADEHIEVPEDMTRLTLDTIGLCGFNYRFNSFYRDQPHPFITSMVRALDEAMNKLQRANPDDPAYDENKRQFQEDIKVMNDLVDKIIADRKASGEQSDDLLTHMLNGKDPETGEPLDDENIRYQIITFLIAGHETTSGLLSFALYFLVKNPHVLQKAAEEAARVLVDPVPSYKQVKQLKYVGMVLNEALRLWPTAPAFSLYAKEDTVLGGEYPLEKGDELMVLIPQLHRDKTIWGDDVEEFRPERFENPSAIPQHAFKPFGNGQRACIGQQFALHEATLVLGMMLKHFDFEDHTNYELDIKETLTLKPEGFVVKAKSKKIPLGGIPSPSTEQSAKKVRKKAENAHNTPLLVLYGSNMGTAEGTARDLADIAMSKGFAPQVATLDSHAGNLPREGAVLIVTASYNGHPPDNAKQFVDWLDQASADEVKGVRYSVFGCGDKNWATTYQKVPAFIDETLAAKGAENIADRGEADASDDFEGTYEEWREHMWSDVAAYFNLDIENSEDNKSTLSLQFVDSAADMPLAKMHGAFSTNVVASKELQQPGSARSTRHLEIELPKEASYQEGDHLGVIPRNYEGIVNRVTARFGLDASQQIRLEAEEEKLAHLPLAKTVSVEELLQYVELQDPVTRTQLRAMAAKTVCPPHKVELEALLEKQAYKEQVLAKRLTMLELLEKYPACEMKFSEFIALLPSIRPRYYSISSSPRVDEKQASITVSVVSGEAWSGYGEYKGIASNYLAELQEGDTITCFISTPQSEFTLPKDPETPLIMVGPGTGVAPFRGFVQARKQLKEQGQSLGEAHLYFGCRSPHEDYLYQEELENAQSEGIITLHTAFSRMPNQPKTYVQHVMEQDGKKLIELLDQGAHFYICGDGSQMAPAVEATLMKSYADVHQVSEADARLWLQQLEEKGRYAKDVWAG
Coupling efficiency [4]: 93%
catalytic efficiency [4]: 6e+07 M⁻¹ s⁻¹
Km [5]: 210 µM
catalytic efficiency [5]: 190000 M⁻¹ s⁻¹
